test system: Escherichia coli TOP10; assay: shrunken log2 fold change of peptide-encoding DNA abundance (4.5 h post-induction vs induction); higher = less antimicrobial activity (less host growth inhibition); conditions: time post-induction: 4.5 h; library: site-saturation at positions 5, 18, 19, 20
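Also: peptides expressed intracellularly from a pBAD plasmid library in pooled LB shake-flask culture, induced with 0.3% L-arabinose, DNA abundance read by NGS, three biological replicates, DESeq2 with apeglm shrinkage.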

Sequence	shrunken log2 fold change
RRIRFRPPRLPRPRPRPQNHPRP	-0.619
RRIRCRPPRLPRPRPRPPTNPRP	0.248
RRIRARPPRLPRPRPRPLGYPRP	0.223
RRIRYRPPRLPRPRPRPQTSPRP	-1.22
RRIRDRPPRLPRPRPRPQLSPRP	0.103
RRIRWRPPRLPRPRPRPYWEPRP	-0.0146
RRIRRRPPRLPRPRPRPVHGPRP	0.335
RRIRDRPPRLPRPRPRPYDQPRP	-0.473
RRIRSRPPRLPRPRPRPSVGPRP	0.0671
RRIRLRPPRLPRPRPRPDVMPRP	-0.269
RRIRVRPPRLPRPRPRPIPSPRP	-0.165
RRIRFRPPRLPRPRPRPHKSPRP	-0.396
RRIRNRPPRLPRPRPRPNTEPRP	-0.206
RRIRRRPPRLPRPRPRPEPRPRP	1.02
RRIRTRPPRLPRPRPRPSHKPRP	-0.421
RRIRLRPPRLPRPRPRPVWWPRP	0.88
RRIRHRPPRLPRPRPRPWLCPRP	0.111
RRIRHRPPRLPRPRPRPNHAPRP	-0.223
RRIRYRPPRLPRPRPRPAPHPRP	-0.247
RRIRVRPPRLPRPRPRPPLHPRP	0.128
RRIRSRPPRLPRPRPRPDYAPRP	-0.0222
RRIRQRPPRLPRPRPRPHQEPRP	-0.00692
RRIRTRPPRLPRPRPRPLTQPRP	-0.309
RRIRPRPPRLPRPRPRPQCTPRP	-0.0867
RRIRFRPPRLPRPRPRPFWMPRP	-0.254

Sequence	shrunken log2 fold change
RRIRMRPPRLPRPRPRPPTPPRP	1.66
RRIRPRPPRLPRPRPRPYRWPRP	0.087
RRIRCRPPRLPRPRPRPEHMPRP	-0.201
RRIRQRPPRLPRPRPRPVRYPRP	0.0926
RRIRTRPPRLPRPRPRPHEQPRP	0.177
RRIRARPPRLPRPRPRPNVPPRP	0.0126
RRIRFRPPRLPRPRPRPLALPRP	-0.0762
RRIRLRPPRLPRPRPRPKCHPRP	-0.387
RRIRFRPPRLPRPRPRPWDVPRP	-0.0811
RRIRLRPPRLPRPRPRPVNLPRP	0.0275
RRIRSRPPRLPRPRPRPKMEPRP	-0.0294
RRIRFRPPRLPRPRPRPVLIPRP	-0.17
RRIRARPPRLPRPRPRPDKCPRP	-0.0816
RRIRWRPPRLPRPRPRPTYNPRP	0.4
RRIRFRPPRLPRPRPRPCHGPRP	-1.45
RRIRSRPPRLPRPRPRPEDMPRP	-0.088
RRIRIRPPRLPRPRPRPRKQPRP	-0.00244
RRIRWRPPRLPRPRPRPIWLPRP	0.211
RRIRHRPPRLPRPRPRPFRCPRP	-0.556
RRIRYRPPRLPRPRPRPWINPRP	-0.803
RRIRARPPRLPRPRPRPGDKPRP	0.173
RRIRHRPPRLPRPRPRPDNMPRP	3.69
RRIRTRPPRLPRPRPRPNYDPRP	-0.493
RRIRYRPPRLPRPRPRPYYRPRP	-0.161
RRIRARPPRLPRPRPRPFPWPRP	0.477

Sequence	shrunken log2 fold change
RRIRQRPPRLPRPRPRPAKPPRP	-0.0548
RRIRYRPPRLPRPRPRPWGHPRP	-0.275
RRIRYRPPRLPRPRPRPNMKPRP	-0.815
RRIRIRPPRLPRPRPRPWCRPRP	-0.521
RRIRNRPPRLPRPRPRPMMHPRP	-0.25
RRIRMRPPRLPRPRPRPLKFPRP	0.426
RRIRARPPRLPRPRPRPLHCPRP	0.617
RRIRWRPPRLPRPRPRPCDKPRP	-0.217
RRIRFRPPRLPRPRPRPRYWPRP	-0.0206
RRIRNRPPRLPRPRPRPCPQPRP	0.0087
RRIRVRPPRLPRPRPRPNIAPRP	0.249
RRIRYRPPRLPRPRPRPKGTPRP	-0.0217
RRIRERPPRLPRPRPRPNYKPRP	-0.722
RRIRQRPPRLPRPRPRPSIGPRP	-0.268
RRIRVRPPRLPRPRPRPWDEPRP	-0.334
RRIRRRPPRLPRPRPRPPQVPRP	1.33
RRIRIRPPRLPRPRPRPLEIPRP	-0.0939
RRIRLRPPRLPRPRPRPSIRPRP	-0.727
RRIRYRPPRLPRPRPRPQTNPRP	-0.711
RRIRGRPPRLPRPRPRPQNPPRP	0.0251
RRIRYRPPRLPRPRPRPEVCPRP	-0.0334
RRIRCRPPRLPRPRPRPYHGPRP	-0.968
RRIRYRPPRLPRPRPRPYLPPRP	-0.174
RRIRMRPPRLPRPRPRPYKDPRP	-0.947
RRIRNRPPRLPRPRPRPDPTPRP	0.0817

Sequence	shrunken log2 fold change
RRIRWRPPRLPRPRPRPCSYPRP	-0.0533
RRIRMRPPRLPRPRPRPRETPRP	1.49
RRIRKRPPRLPRPRPRPHTNPRP	0.192
RRIRQRPPRLPRPRPRPDWQPRP	0.0854
RRIRMRPPRLPRPRPRPRLIPRP	0.0709
RRIRKRPPRLPRPRPRPTMSPRP	0.22
RRIRARPPRLPRPRPRPKFHPRP	0.133
RRIRYRPPRLPRPRPRPTAKPRP	0.0338
RRIRARPPRLPRPRPRPTHVPRP	0.813
RRIRVRPPRLPRPRPRPFWFPRP	0.149
RRIRTRPPRLPRPRPRPTALPRP	0.0207
RRIRSRPPRLPRPRPRPVPRPRP	0.427
RRIRIRPPRLPRPRPRPGCPPRP	-0.304
RRIRKRPPRLPRPRPRPVWEPRP	0.391
RRIRERPPRLPRPRPRPQREPRP	0.0255
RRIRVRPPRLPRPRPRPFTPPRP	-0.412
RRIRLRPPRLPRPRPRPKGWPRP	0.342
RRIRTRPPRLPRPRPRPSKCPRP	-0.535
RRIRQRPPRLPRPRPRPWVYPRP	-0.264
RRIRSRPPRLPRPRPRPDPHPRP	-0.151
RRIRERPPRLPRPRPRPNGFPRP	0.0354
RRIRVRPPRLPRPRPRPQNYPRP	-0.285
RRIRMRPPRLPRPRPRPYINPRP	-0.574
RRIRRRPPRLPRPRPRPEFIPRP	-0.0197
RRIRARPPRLPRPRPRPKFDPRP	0.376

Sequence	shrunken log2 fold change
RRIRCRPPRLPRPRPRPTVMPRP	0.0757
RRIRGRPPRLPRPRPRPHSPPRP	0.289
RRIRLRPPRLPRPRPRPMFGPRP	0.109
RRIRGRPPRLPRPRPRPPDVPRP	0.0671
RRIRSRPPRLPRPRPRPGPDPRP	0.332
RRIRYRPPRLPRPRPRPDIAPRP	-0.0285
RRIRMRPPRLPRPRPRPFMCPRP	-0.171
RRIRGRPPRLPRPRPRPDKPPRP	0.415
RRIRGRPPRLPRPRPRPCLHPRP	0.331
RRIRCRPPRLPRPRPRPAMHPRP	0.354
RRIRPRPPRLPRPRPRPLWMPRP	0.0937
RRIRTRPPRLPRPRPRPHVMPRP	-0.0914
RRIRCRPPRLPRPRPRPCNPPRP	-0.23
RRIRLRPPRLPRPRPRPVHHPRP	-0.105
RRIRIRPPRLPRPRPRPKKWPRP	-0.00764
RRIRIRPPRLPRPRPRPSIAPRP	-0.628
RRIRHRPPRLPRPRPRPYIWPRP	-0.431
RRIRRRPPRLPRPRPRPSTHPRP	0.0934
RRIRPRPPRLPRPRPRPGIFPRP	0.0736
RRIRLRPPRLPRPRPRPIEQPRP	-0.0092
RRIRVRPPRLPRPRPRPNCAPRP	0.289
RRIRFRPPRLPRPRPRPNQMPRP	-0.167
RRIRPRPPRLPRPRPRPKYEPRP	-0.203
RRIRMRPPRLPRPRPRPHLKPRP	0.253
RRIRARPPRLPRPRPRPMLEPRP	0.455

Sequence	shrunken log2 fold change
RRIRTRPPRLPRPRPRPTIPPRP	-0.198
RRIRFRPPRLPRPRPRPLDWPRP	-0.119
RRIRFRPPRLPRPRPRPSMIPRP	-0.603
RRIRGRPPRLPRPRPRPHAEPRP	2.68
RRIRSRPPRLPRPRPRPYKRPRP	-0.618
RRIRHRPPRLPRPRPRPQFHPRP	-0.153
RRIRARPPRLPRPRPRPRAPPRP	1.01
RRIRARPPRLPRPRPRPAERPRP	0.301
RRIRMRPPRLPRPRPRPNFQPRP	-0.0246
RRIRSRPPRLPRPRPRPGECPRP	-0.181
RRIRHRPPRLPRPRPRPIQTPRP	-0.338
RRIRERPPRLPRPRPRPHWSPRP	-0.71
RRIRTRPPRLPRPRPRPTSIPRP	-0.195
RRIRQRPPRLPRPRPRPKWYPRP	-0.118
RRIRSRPPRLPRPRPRPDITPRP	0.0856
RRIRARPPRLPRPRPRPVNKPRP	-0.117
RRIRWRPPRLPRPRPRPLIHPRP	-0.0681
RRIRDRPPRLPRPRPRPGVQPRP	-0.0372
RRIRKRPPRLPRPRPRPRNFPRP	0.731
RRIRARPPRLPRPRPRPHQYPRP	-0.278
RRIRPRPPRLPRPRPRPHKQPRP	-0.022
RRIRVRPPRLPRPRPRPSNLPRP	-0.586
RRIRKRPPRLPRPRPRPAWAPRP	0.577
RRIRLRPPRLPRPRPRPQQQPRP	0.0294
RRIRRRPPRLPRPRPRPGPGPRP	0.598

Reference: the supplement of paper PMC9112550, “Optimization of the antimicrobial peptide Bac7 by deep mutational scanning” (BMC Biology, 2022)
